# According to paper PMC6420622, “Mutations in the PKM2 exon-10 region are associated with reduced allostery and increased nuclear translocation” (Communications Biology, 2019):
# Biological target: the molecule itself
# Experiment: crystal structure; PKM2 variant with Ser and FBP; hanging drop, 0.1 M Tris pH 7.5, 0.2 M NaCl, 14% PEG 3350, 4 °C; molecular replacement with PDB 4B2D
protein,measurement,value
"His-tagged PKM2 R399E (enzyme, Pyruvate kinase isoform M2 (PKM2), engineered mutant R399E; full-length cDNA in pET28a, site-directed mutagenesis; Crystallised with Ser and FBP (PDB 5X0I); also called His-PKM2 R399E; source: E. coli BL21 (DE3), purified (cobalt-chelated TALON resin)) not shown",binding result,binds
